{"source": "patent US20200085776A1", "about": "“Methods of Reducing C-Reactive Protein and/or Treating Cardiovascular Disease” (CARDAX, INC., priority 2018, published 2020)", "origin": "cited, not measured here", "key": {"cardiovascular events": {"system": "cardiovascular events", "conditions": "15-20 mg/week vs. placebo; cited from earlier work"}, "vascular events": {"system": "vascular events", "conditions": "20 mg/D; patients who achieved a reduction in CRP<2.0; cited from earlier work"}, "IL-1β": {"target": "T1, IL-1β (Homo sapiens, UniProt P01584)", "T1 construct": "host or cells: human trial patients (endogenous IL-1β)", "conditions": "cited from earlier work"}, "[1]": {"conditions": "subjects with a reduction of CRP<2.0 mg/L, regardless of dose"}}, "data": [{"molecule": "CN(Cc1cnc2nc(N)nc(N)c2n1)c1ccc(C(=O)N[C@@H](CCC(=O)O)C(=O)O)cc1", "note": "[methotrexate]", "values": [{"measurement": "cardiovascular events compared to placebo", "setting": "cardiovascular events", "value": "did not result in fewer cardiovascular events"}, {"measurement": "effect on levels of IL-1β, IL-6, CRP", "setting": "cardiovascular events", "value": "did not reduce levels of IL-1β, IL-6, or CRP"}]}, {"molecule": "CC(C)c1nc(N(C)S(C)(=O)=O)nc(-c2ccc(F)cc2)c1/C=C/[C@@H](O)C[C@@H](O)CC(=O)O", "note": "[rosuvastatin]", "values": [{"measurement": "reduction in vascular events", "setting": "vascular events", "value": 62, "unit": "%"}]}, {"molecule": "canakinumab: monoclonal antibody that targets IL-1β (printed IL-113)", "values": [{"measurement": "deaths from infection", "setting": "IL-1β; active treatment groups, mostly tuberculosis", "value": "more deaths from infection"}, {"measurement": "effect on CRP, IL-6 and lipids", "setting": "IL-1β; patients with active treatment", "value": "a reduction in CRP and IL-6, with no change in lipids"}, {"measurement": "reduction in cardiovascular death and all-cause mortality", "setting": "IL-1β; [1]", "value": 31, "unit": "%"}, {"measurement": "reduction in the primary end point (composite of myocardial infarction, stroke, or cardiovascular death)", "setting": "IL-1β; [1]", "value": 25, "unit": "%"}]}]}
